Molecular target: TSLP, Q969D9
Test: Kd (SPR)

Binder | Kd [nM]
unnamed (protein) chain 1: QMQLVESGGGVVQPGRSLRLSCAASGFTFRTYGMHWVRQAPGKGLEWVAVIWYDGSNKHYADSVKGRFTITRDNSKNTLNLQMNSLRAEDTAVYYCARAPRYYEAYEAFDVWGQGTMVTVSS chain 2: SYVLTQPPSVSVAPGQTARITCGGNNLGSKSVHWYQQKPGQAPVLVVYDDSDRPSWIPERFSGSNSGNTATLTISRGEAGDEADYYCQVWDSSSDHVVFGGGTKLTVL | 31
unnamed (protein) chain 1: QMQLVESGGGVVQPGRSLRLSCAASGFTFRTYGMHWVRQAPGKGLEWVAVIWYDGSNKHYADSVKGRFTITRDNSKNTLNLQMNSLRAEDTAVYYCARAPRYYDYYEAFDVWGQGTMVTVSS chain 2: SYVLTQPPSVSVAPGQTARITCGGNNLGSKSVHWYQQKPGQAPVLVVYDDSDRPSWIPERFSGSNSGNTATLTISRGEAGDEADYYCQVWDSSSDHVVFGGGTKLTVL | 33.2
unnamed (protein) chain 1: QMQLVESGGGVVQPGRSLRLSCAASGFTFRTYGMHWVRQAPGKGLEWVAVIWYDGSNKHYADSVKGRFTITRDNSKNTLNLQMNSLRAEDTAVYYCARAPRYDYYWEAFDVWGQGTMVTVSS chain 2: SYVLTQPPSVSVAPGQTARITCGGNNLGSKSVHWYQQKPGQAPVLVVYDDSDRPSWIPERFSGSNSGNTATLTISRGEAGDEADYYCQVWDSSSDHVVFGGGTKLTVL | 175
unnamed (protein) chain 1: QMQLVESGGGVVQPGRSLRLSCAASGFTFRTYGMHWVRQAPGKGLEWVAVIWYDGSNKHYADSVKGRFTITRDNSKNTLNLQMNSLRAEDTAVYYCARAPRYDWYVEAFDVWGQGTMVTVSS chain 2: SYVLTQPPSVSVAPGQTARITCGGNNLGSKSVHWYQQKPGQAPVLVVYDDSDRPSWIPERFSGSNSGNTATLTISRGEAGDEADYYCQVWDSSSDHVVFGGGTKLTVL | 54.2
unnamed (protein) chain 1: QMQLVESGGGVVQPGRSLRLSCAASGFTFRTYGMHWVRQAPGKGLEWVAVIWYDGSNKHYADSVKGRFTITRDNSKNTLNLQMNSLRAEDTAVYYCARAPRYDEEYEAFDVWGQGTMVTVSS chain 2: SYVLTQPPSVSVAPGQTARITCGGNNLGSKSVHWYQQKPGQAPVLVVYDDSDRPSWIPERFSGSNSGNTATLTISRGEAGDEADYYCQVWDSSSDHVVFGGGTKLTVL | 78.9
unnamed (protein) chain 1: QMQLVESGGGVVQPGRSLRLSCAASGFTFRTYGMHWVRQAPGKGLEWVAVIWYDGSNKHYADSVKGRFTITRDNSKNTLNLQMNSLRAEDTAVYYCARAPRYDETWEAFDVWGQGTMVTVSS chain 2: SYVLTQPPSVSVAPGQTARITCGGNNLGSKSVHWYQQKPGQAPVLVVYDDSDRPSWIPERFSGSNSGNTATLTISRGEAGDEADYYCQVWDSSSDHVVFGGGTKLTVL | 141

Continued, values first:

Kd [nM] | Binder
163 | unnamed (protein) chain 1: QMQLVESGGGVVQPGRSLRLSCAASGFTFRTYGMHWVRQAPGKGLEWVAVIWYDGSNKHYADSVKGRFTITRDNSKNTLNLQMNSLRAEDTAVYYCARAPRYDDYYDAFDVWGQGTMVTVSS chain 2: SYVLTQPPSVSVAPGQTARITCGGNNLGSKSVHWYQQKPGQAPVLVVYDDSDRPSWIPERFSGSNSGNTATLTISRGEAGDEADYYCQVWDSSSDHVVFGGGTKLTVL
48.2 | unnamed (protein) chain 1: QMQLVESGGGVVQPGRSLRLSCAASGFTFRTYGMHWVRQAPGKGLEWVAVIWYDGSNKHYADSVKGRFTITRDNSKNTLNLQMNSLRAEDTAVYYCARAPRYDWYYEAFDVWGQGTMVTVSS chain 2: SYVLTQPPSVSVAPGQTARITCGGNNLGSKSVHWYQQKPGQAPVLVVYDDSDRPSWIPERFSGSNSGNTATLTISRGEAGDEADYYCQVWDSSSDHVVFGGGTKLTVL
33.5 | unnamed (protein) chain 1: QMQLVESGGGVVQPGRSLRLSCAASGFTFRTYGMHWVRQAPGKGLEWVAVIWYDGSNKHYADSVKGRFTITRDNSKNTLNLQMNSLRAEDTAVYYCARAPRYYDAYEAFDVWGQGTMVTVSS chain 2: SYVLTQPPSVSVAPGQTARITCGGNNLGSKSVHWYQQKPGQAPVLVVYDDSDRPSWIPERFSGSNSGNTATLTISRGEAGDEADYYCQVWDSSSDHVVFGGGTKLTVL
31.9 | unnamed (protein) chain 1: QMQLVESGGGVVQPGRSLRLSCAASGFTFRTYGMHWVRQAPGKGLEWVAVIWYDGSNKHYADSVKGRFTITRDNSKNTLNLQMNSLRAEDTAVYYCARAPRYYEYLEAFDVWGQGTMVTVSS chain 2: SYVLTQPPSVSVAPGQTARITCGGNNLGSKSVHWYQQKPGQAPVLVVYDDSDRPSWIPERFSGSNSGNTATLTISRGEAGDEADYYCQVWDSSSDHVVFGGGTKLTVL

Source: the FLAb antibody collection (doi:10.1101/2023.12.08.570889)
